Residue numbers refer to the chain shown, from its start.
B1: 408 (protein)
chain: LDNGLARTPTMGWLHWERFMCNLDCQEEPDSCISEKLFMEMAERMVSEGWKDAGYEYLCIDDCWMAPQRDSEGRLQADPQRFPHGIRQLANYVHSKGLKLGIYADVGNKTCAGFPGSFGYYDIDAQTFADWGVDLLKFDGCYCDSLENLADGYKHMSLALNRTGRRIVYSCEWPLYMWPFQKPNYTEIRQYCNHWRNFADIDDSWKSIKSILDWTSRNQERIVDVAGPGGWNDPDMLVIGNFGLSWDQQVTQMALWAIMAAPLFMSNDLRHISPQAKALLQDKDVIAINQDPLGKQGYQLRKGDNFEVWERPLSGDAWAVAIINRQEIGGPRSYTIPVASLGKGVACNPACFITQLLPVKRQLGFYNWTSRLKSHINPTGTVLLQLENTMQMSLKDLL
modifications: Synthetic Polypeptide sequence of Variant No. 408 of mature Human GLA
B2: 421 (protein)
chain: B1 chain with R162Q, R166S
modifications: Synthetic Polypeptide sequence of Variant No. 421 of mature Human GLA
B3: 412 (protein)
chain: B1 chain with R166H
modifications: Synthetic Polypeptide sequence of Variant No. 412 of mature Human GLA
B4: 417 (protein)
chain: B1 chain with R162S, R166S
modifications: Synthetic Polypeptide sequence of Variant No. 417 of mature Human GLA
B5: 423 (protein)
chain: B1 chain with R162A, R166S
modifications: Synthetic Polypeptide sequence of Variant No. 423 of mature Human GLA
B6: 418 (protein)
chain: B1 chain with N161E, R166S
modifications: Synthetic Polypeptide sequence of Variant No. 418 of mature Human GLA
B7: 409 (protein)
chain: B1 chain with R165H, R166S
modifications: Synthetic Polypeptide sequence of Variant No. 409 of mature Human GLA
B8: 410 (protein)
chain: B1 chain with R162H, R166S
modifications: Synthetic Polypeptide sequence of Variant No. 410 of mature Human GLA
B9: 415 (protein)
chain: B1 chain with R166D
modifications: Synthetic Polypeptide sequence of Variant No. 415 of mature Human GLA
B10: 420 (protein)
chain: B1 chain with R166T
modifications: Synthetic Polypeptide sequence of Variant No. 420 of mature Human GLA
B11: 414 (protein)
chain: B1 chain with L158Q, R166S
modifications: Synthetic Polypeptide sequence of Variant No. 414 of mature Human GLA
B12: 411 (protein)
chain: B1 chain with R166A
modifications: Synthetic Polypeptide sequence of Variant No. 411 of mature Human GLA
B13: 422 (protein)
chain: B1 chain with L158G, R166S
modifications: Synthetic Polypeptide sequence of Variant No. 422 of mature Human GLA
B14: 419 (protein)
chain: B1 chain with R166E
modifications: Synthetic Polypeptide sequence of Variant No. 419 of mature Human GLA
B15: 416 (protein)
chain: B1 chain with R162G, R166S
modifications: Synthetic Polypeptide sequence of Variant No. 416 of mature Human GLA
B16: 363 (protein)
chain: B1 chain with S47D, R166S
modifications: Synthetic Polypeptide sequence of Variant No. 363 of mature Human GLA

How the values were obtained:
Assay type in all cases: biochemical
[1] = HTP-analysis of supernatants pretreated with base (MUGal hydrolysis); conditions: activity of the variant/activity of Rd4BB (SEQ ID NO: 15); challenge at pH 9.65
Procedure, shortened: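 GLA variants were secreted by transformed INVSc1 yeast grown 66-84 h at 30° C. Supernatants were exposed to neutral-to-basic buffers (pH 7.0-9.7) at 37° C for 1-18 h, then assayed with MUGal in acidic citrate/McIlvaine buffer, with fluorescence read after quenching.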

[2] = HTP-analysis of yeast culture supernatants, no challenge (MUGal hydrolysis); conditions: activity of the variant/activity of Rd4BB (SEQ ID NO: 15)
Procedure, shortened: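 Activity read as 4-methylumbelliferyl α-D-galactopyranoside hydrolysis: fluorescence (355/448 nm) after sodium carbonate stop, following 30-180 min at 37° C with 2 mM MUGal stock at pH 4.6–4.8. Enzyme source is unchallenged culture supernatant of INVSc1 yeast expressing GLA variants, grown 66-84 h at 30° C.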

[3] = HTP-analysis of supernatants pretreated with acid (MUGal hydrolysis); conditions: activity of the variant/activity of Rd4BB (SEQ ID NO: 15); challenge at pH 3.7
Procedure, shortened: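 Supernatants from INVSc1 yeast secreting GLA variants were challenged at 37° C. for 1-3 h in McIlvaine buffer at pH 3.3-4.3. Residual activity was then measured on 4 mM MUGal substrate stock at pH 4.8 with citrate buffer pH 4.3, over 30-180 min at 37° C. Reactions were quenched with sodium carbonate and read by fluorescence (Ex 355/Em 448 nm).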

Molecule | Relative Activity of GLA Variants After Challenge at pH 9.65 [1] | Relative Activity of GLA Variants After No Challenge (NC) [2] | Relative Activity of GLA Variants After Challenge at pH 3.7 [3]
B1 | + (0.5 to 1.5 relative activity over Rd4BB (SEQ ID NO: 15)) | + (0.5 to 1.5 relative activity over Rd4BB (SEQ ID NO: 15)) | + (0.5 to 1.5 relative activity over Rd4BB (SEQ ID NO: 15))
B2 | − (<0.5 relative activity over Rd4BB (SEQ ID NO: 15)) | + (0.5 to 1.5 relative activity over Rd4BB (SEQ ID NO: 15)) | + (0.5 to 1.5 relative activity over Rd4BB (SEQ ID NO: 15))
B3 | + (0.5 to 1.5 relative activity over Rd4BB (SEQ ID NO: 15)) | + (0.5 to 1.5 relative activity over Rd4BB (SEQ ID NO: 15)) | ++ (>1.5 to 2.5 relative activity over Rd4BB (SEQ ID NO: 15))
B4 | − (<0.5 relative activity over Rd4BB (SEQ ID NO: 15)) | + (0.5 to 1.5 relative activity over Rd4BB (SEQ ID NO: 15)) | + (0.5 to 1.5 relative activity over Rd4BB (SEQ ID NO: 15))
B5 | + (0.5 to 1.5 relative activity over Rd4BB (SEQ ID NO: 15)) | + (0.5 to 1.5 relative activity over Rd4BB (SEQ ID NO: 15)) | + (0.5 to 1.5 relative activity over Rd4BB (SEQ ID NO: 15))
B6 | − (<0.5 relative activity over Rd4BB (SEQ ID NO: 15)) | + (0.5 to 1.5 relative activity over Rd4BB (SEQ ID NO: 15)) | + (0.5 to 1.5 relative activity over Rd4BB (SEQ ID NO: 15))
B7 | − (<0.5 relative activity over Rd4BB (SEQ ID NO: 15)) | + (0.5 to 1.5 relative activity over Rd4BB (SEQ ID NO: 15)) | + (0.5 to 1.5 relative activity over Rd4BB (SEQ ID NO: 15))
B8 | − (<0.5 relative activity over Rd4BB (SEQ ID NO: 15)) | + (0.5 to 1.5 relative activity over Rd4BB (SEQ ID NO: 15)) | + (0.5 to 1.5 relative activity over Rd4BB (SEQ ID NO: 15))
B9 | + (0.5 to 1.5 relative activity over Rd4BB (SEQ ID NO: 15)) | + (0.5 to 1.5 relative activity over Rd4BB (SEQ ID NO: 15)) | + (0.5 to 1.5 relative activity over Rd4BB (SEQ ID NO: 15))
B10 | − (<0.5 relative activity over Rd4BB (SEQ ID NO: 15)) | + (0.5 to 1.5 relative activity over Rd4BB (SEQ ID NO: 15)) | ++ (>1.5 to 2.5 relative activity over Rd4BB (SEQ ID NO: 15))
B11 | + (0.5 to 1.5 relative activity over Rd4BB (SEQ ID NO: 15)) | + (0.5 to 1.5 relative activity over Rd4BB (SEQ ID NO: 15)) | + (0.5 to 1.5 relative activity over Rd4BB (SEQ ID NO: 15))
B12 | + (0.5 to 1.5 relative activity over Rd4BB (SEQ ID NO: 15)) | + (0.5 to 1.5 relative activity over Rd4BB (SEQ ID NO: 15)) | + (0.5 to 1.5 relative activity over Rd4BB (SEQ ID NO: 15))
B13 | − (<0.5 relative activity over Rd4BB (SEQ ID NO: 15)) | + (0.5 to 1.5 relative activity over Rd4BB (SEQ ID NO: 15)) | + (0.5 to 1.5 relative activity over Rd4BB (SEQ ID NO: 15))
B14 | + (0.5 to 1.5 relative activity over Rd4BB (SEQ ID NO: 15)) | + (0.5 to 1.5 relative activity over Rd4BB (SEQ ID NO: 15)) | + (0.5 to 1.5 relative activity over Rd4BB (SEQ ID NO: 15))
B15 | − (<0.5 relative activity over Rd4BB (SEQ ID NO: 15)) | + (0.5 to 1.5 relative activity over Rd4BB (SEQ ID NO: 15)) | + (0.5 to 1.5 relative activity over Rd4BB (SEQ ID NO: 15))
B16 | + (0.5 to 1.5 relative activity over Rd4BB (SEQ ID NO: 15)) | + (0.5 to 1.5 relative activity over Rd4BB (SEQ ID NO: 15)) | + (0.5 to 1.5 relative activity over Rd4BB (SEQ ID NO: 15))

From patent US11278600B2, “Human alpha-galactosidase variants” (Codexis, Inc., priority 2014, dated 2022)
